Test results taken from US20230295336A1 (INHIBRX, published 2023).

T1: B7H3 (CD276) (human, UniProt Q5ZPR3 29-534)
T1 construct: whole, on cells
T1 sequence (looked up): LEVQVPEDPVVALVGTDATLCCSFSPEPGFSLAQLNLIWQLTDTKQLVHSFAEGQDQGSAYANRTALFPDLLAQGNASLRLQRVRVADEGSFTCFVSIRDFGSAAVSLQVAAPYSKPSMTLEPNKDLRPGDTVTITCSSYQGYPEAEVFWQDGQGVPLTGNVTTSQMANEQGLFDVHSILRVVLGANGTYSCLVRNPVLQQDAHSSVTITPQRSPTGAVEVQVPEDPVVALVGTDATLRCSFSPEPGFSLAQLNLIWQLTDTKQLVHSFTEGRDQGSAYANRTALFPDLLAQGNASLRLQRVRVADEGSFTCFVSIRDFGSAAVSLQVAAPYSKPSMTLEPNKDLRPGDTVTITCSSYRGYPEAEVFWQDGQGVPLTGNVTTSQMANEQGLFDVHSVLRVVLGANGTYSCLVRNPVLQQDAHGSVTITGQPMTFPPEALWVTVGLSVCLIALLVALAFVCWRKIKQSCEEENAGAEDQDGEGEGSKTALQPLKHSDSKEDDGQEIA


What was measured:
[1] = target: T2, Folate Receptor Alpha (FRα) (UniProt P15328 25-234, limits assumed); experiment: flow cytometry on Ovcar-5 cells, anti-human IgG Fc secondary
T2 construct: whole, on cells; also called FR-Alpha
Procedure: (§1) Binding of exemplary multispecific polypeptide constructs of the disclosure containing an antigen-binding domain directed against Folate Receptor Alpha (FRα) to CD3 on the surface of primary T cells and to FRα expressing cells (Ovcar-5) was assessed by flow cytometry. The tumor antigen binding domains of the tested constructs bind the Folate Receptor Alpha (FRα), which is not expressed on the primary T cells. The tested constructs included cx1356 and cx681, containing a non-cleavable linker of 3 amino acids in cx1356 or a non-cleavable linker of 18 amino acids in cx681 (see FIG. 2B and Table E1.1).
(§2) For the studies described in FIGS. 5A and 5B, 100 nM of each construct, cx1356 or cx681 was used and assessed for binding to either the Ovcar-5 cells or primary T-cells. An anti-CD3 antibody was included as a control. A titration of the constrained CD3 engaging constructs on either FRα expressing cells (Ovcar-5; FIG. 5C) or isolated primary T-cells (FRα negative; FIG. 5D), was conducted to assess binding. Bound constructs were detected using fluorophore-conjugated anti-human IgG Fc secondary antibody.

[2] = target: T3, CD3 on the surface of primary T cells (human, UniProt P07766 23-207); experiment: flow cytometry on isolated primary T cells, anti-human IgG Fc secondary
T3 construct: whole, on cells; CD3 is a multimeric complex (ε, γ, δ, ζ chains) with the TCR; In the reporter assays CD3 stood on Jurkat cells; also called CD3ε
Procedure: as §1, §2

B7H3 (CD276) = target: T1, B7H3 (CD276); experiment: flow cytometry on A375 cells
Procedure: (§3) Binding of exemplary multispecific constructs containing an antigen-binding domain directed against B7H3 were assessed for binding to B7H3 positive A375 tumor cells or primary T-cells. The constructs were generated containing antigen-binding domain(s) that were either sdAbs or a FABs, and that were positioned either only N-terminal to the Fc or both N-terminal to the Fc and C-terminal to the anti-CD3 binding domain (see FIGS. 3A and 3C and Table E1.1). Among the various formats of constructs tested included: sdAb-Fc-dsFV-sdAb (cx3072, cx5952) sdAb-Fc-FV (cx6079), sdAb-Fc-dsFV (cs6080, cx6081), MAB-FV (cx5067) and MAB-dsFV (cx6083, cx6084), where the FV represents the anti-CD3 binding domain composed of VH and VL domain pairs and “ds” notes disulfide stabilized via an engineered interdomain disulfide bond.
(§4) Binding was assessed as described above via flow cytometry using a fluorophore-conjugated anti-human Fc secondary antibody. cx3072 bound to A375 cells with high affinity (FIG. 6A) but not to isolated T-cells (FIG. 6B). […]

[3] = target: T3, CD3 on the surface of primary T cells; experiment: flow cytometry on isolated T cells
Procedure: as §3, §4

T3 sequence (P07766 23-207): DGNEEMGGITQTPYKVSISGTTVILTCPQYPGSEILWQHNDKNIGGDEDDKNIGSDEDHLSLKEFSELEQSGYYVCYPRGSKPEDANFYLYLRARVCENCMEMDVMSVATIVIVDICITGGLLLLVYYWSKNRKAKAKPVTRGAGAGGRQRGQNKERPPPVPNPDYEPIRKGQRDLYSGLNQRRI
T2 sequence (P15328 25-234 limits assumed): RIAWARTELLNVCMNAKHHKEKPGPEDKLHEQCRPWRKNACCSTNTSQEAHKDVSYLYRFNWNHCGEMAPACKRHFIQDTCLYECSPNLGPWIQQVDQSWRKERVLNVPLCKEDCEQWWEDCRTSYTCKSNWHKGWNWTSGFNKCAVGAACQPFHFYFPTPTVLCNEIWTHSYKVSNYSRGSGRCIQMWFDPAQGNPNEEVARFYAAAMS

Row | Binder | binding result [1] | binding result [2] | binding result (B7H3 (CD276)) | binding result [3]
1 | cx1356 (bispecific antibody, Heterodimer of chain 1 and chain 2; anti-CD3 Fv disulfide-stabilized (VH G44C / VL G100C); the shortest entry is written; also called FRα-targeting constrained CD3 engaging construct; gs3 linker) chain 1: not shown chain 2: QLQLQESGGGLVQPGGSLRLSCAASGFTLDNYAIGWFRQAPGKEREGVSCISSSDGSTYYADSVKGRFTISRNNAKGTVYLLMNSLKPEDTAVYYCATELVPACTYSNGRGPLDGMDYWGKGTQVTVKPPGGGGDKTHTCPPCPAPELLGGPSVFLFPPKPKDTLMRSRTPEVTCVVVDVSHEDPEVKFNWYVDGVEVHNAKTKPREEQYNSTYRVVSVLTVLHQDWLNGKEYKCKVSNKALPAPIEKTISKAKGQPREPQVCTLPPSRDELTKNQVSLSCAVKGFYPSDIAVEWESNGQPENNYKTTPPVLDSDGSFFLVSKLTVDKSRWQQGNVFSCSVMHEALHNHYTQKSLSLSPGGSQAVVTQEPSLTVSPGGTVTLTCGSSTGAVTTSNYANWVQQKPGKSPRGLIGGTNKRAPGVPARFSGSLLGGKAALTISGAQPEDEADYYCALWYSNHWVFGCGTKLTVLGGGGEVQLLESGGGEVQPGGSLRLSCAASGSIFSIDATAWYRQAPGKQRELVAIITSSGSTNYPESVKGRFTISRDNAKNTVYLQMSSLRAEDTAVYYCNAITRYGGSTYDFWGQGTLVTVKP | binds | no binding (tested: 100 nM) | – | –
2 | cx6079 (bispecific antibody, Heterodimer of chain 1 and chain 2; anti-CD3 Fv not disulfide-stabilized; two identical B7H3 sdAbs, both N-terminal to the Fc; also called B7H3-targeting constrained CD3 engaging construct; sdAb-Fc-FV) chain 1: EVQLVESGGGEVQPGGSLRLSCAASGFSFSSNVMMWVRQAPGKGLEWVSTIYSSGTGTFYAESVKGRFTISRDNAKNTLYLQMSSLRPEDTAVYYCATSGPVRGWGPRSQGTLVTVKPPGGGGDKTHTCPPCPAPPVAGPSVFLFPPKPKDTLMISRTPEVTCVVVDVKHEDPEVKFNWYVDGVEVHNAKTKPREEEYNSTYRVVSVLTVLHQDWLNGKEYKCKVSNKALPAPIEKTISKAKGQPREPQVYTLPPSREEMTKNQVSLTCDVSGFYPSDIAVEWESDGQPENNYKTTPPVLDSDGSFFLYSKLTVDKSRWEQGDVFSCSVMHEALHNHYTQKSLSLSPGKGGGGSGGGGSGGGGSEVQLVESGGGLVQPGGSLRLSCAASGFTFSTYAMNWVRQAPGKGLEWVGRIRSKYNNYATYYADSVKGRFTISRDDSKNTLYLQMNSLRAEDTAVYYCVRHGNFGDSYVSWFAYWGQGTLVTVSS chain 2: EVQLVESGGGEVQPGGSLRLSCAASGFSFSSNVMMWVRQAPGKGLEWVSTIYSSGTGTFYAESVKGRFTISRDNAKNTLYLQMSSLRPEDTAVYYCATSGPVRGWGPRSQGTLVTVKPPGGGGDKTHTCPPCPAPPVAGPSVFLFPPKPKDTLMISRTPEVTCVVVDVKHEDPEVKFNWYVDGVEVHNAKTKPREEQYNSTYRVVSVLTVLHQDWLNGKEYKCKVSNKALPAPIEKTISKAKGQPREPQVYTLPPSREQMTKNQVKLTCLVKGFYPSDIAVEWESNGQPENNYKTTPPVLDSDGSFFLYSKLTVDKSRWQQGNVFSCSVMHEALHNHYTQKSLSLSPGKGGGGSGGGGSGGGGSQAVVTQEPSLTVSPGGTVTLTCGSSTGAVTTSNYANWVQQKPGKSPRGLIGGTNKRAPGVPARFSGSLLGGKAALTISGAQPEDEADYYCALWYSNHWVFGGGTKLTVL | – | – | binds | no binding
3 | cx681 (bispecific antibody, Heterodimer of chain 1 and chain 2; anti-CD3 Fv disulfide-stabilized (VH G44C / VL G100C); the shortest entry is written; also called FRα-targeting constrained CD3 engaging construct; gs18 linker) chain 1: not shown chain 2: QLQLQESGGGLVQPGGSLRLSCAASGFTLDNYAIGWFRQAPGKEREGVSCISSSDGSTYYADSVKGRFTISRNNAKGTVYLLMNSLKPEDTAVYYCATELVPACTYSNGRGPLDGMDYWGKGTQVTVKPPGGGGDKTHTCPPCPAPELLGGPSVFLFPPKPKDTLMRSRTPEVTCVVVDVSHEDPEVKFNWYVDGVEVHNAKTKPREEQYNSTYRVVSVLTVLHQDWLNGKEYKCKVSNKALPAPIEKTISKAKGQPREPQVCTLPPSRDELTKNQVSLSCAVKGFYPSDIAVEWESNGQPENNYKTTPPVLDSDGSFFLVSKLTVDKSRWQQGNVFSCSVMHEALHNHYTQKSLSLSPGGSGGGGSGGGGSGGGGSQAVVTQEPSLTVSPGGTVTLTCGSSTGAVTTSNYANWVQQKPGKSPRGLIGGTNKRAPGVPARFSGSLLGGKAALTISGAQPEDEADYYCALWYSNHWVFGCGTKLTVLGGGGEVQLLESGGGEVQPGGSLRLSCAASGSIFSIDATAWYRQAPGKQRELVAIITSSGSTNYPESVKGRFTISRDNAKNTVYLQMSSLRAEDTAVYYCNAITRYGGSTYDFWGQGTLVTVKP | binds | no binding (tested: 100 nM) | – | –
4 | cx5952 (bispecific antibody, Heterodimer of chain 1 and chain 2; anti-CD3 Fv disulfide-stabilized (VH G44C / VL G100C); also called B7H3-targeting constrained CD3 engaging construct; sdAb-Fc-dsFV-sdAb) chain 1: EVQLVESGGGEVQPGGSLRLSCAASGFSFSSNVMMWVRQAPGKGLEWVSTIYSSGTGTFYAESVKGRFTISRDNAKNTLYLQMSSLRPEDTAVYYCATSGPVRGWGPRSQGTLVTVKPPGGGGDKTHTCPPCPAPGGPSVFLFPPKPKDTLMISRTPEVTCVVVDVSHEDPEVKFNWYVDGVEVHNAKTKPREEQYNSTYRVVSVLTVLHQDWLNGKEYKCKVSNKALPAPIEKTISKAKGQPREPQVYTLPPCRDELTKNQVSLWCLVKGFYPSDIAVEWESNGQPENNYKTTPPVLDSDGSFFLYSKLTVDKSRWQQGNVFSCSVMHEALHNHYTQKSLSLSPGGGGGGSGGGGGSGGGGGSEVQLVESGGGLVQPGGSLRLSCAASGFTFNTYAMNWVRQAPGKCLEWVARIRSKYNNYATYYADSVKGRFTISRDDAKNTLYLQMSSLRAEDTAVYYCVRHGNFGNSYVSWFAYWGQGTLVTVKPGGGGEVQLVESGGGEVQPGGSLRLSCAASGFTFSSYHMSWFRQAPGKQRELVATSHHGGTTNYAGSVKGRFTISRDNAKNTVYLQMNTLRAEDTAVYYCKADHGYQGRGYWGQGTLVTVKP chain 2: DKTHTCPPCPAPGGPSVFLFPPKPKDTLMISRTPEVTCVVVDVSHEDPEVKFNWYVDGVEVHNAKTKPREEQYNSTYRVVSVLTVLHQDWLNGKEYKCKVSNKALPAPIEKTISKAKGQPREPQVCTLPPSRDELTKNQVSLSCAVKGFYPSDIAVEWESNGQPENNYKTTPPVLDSDGSFFLVSKLTVDKSRWQQGNVFSCSVMHEALHNRYTQKSLSLSPGGGGGGSGGGGGSGGGGGSQAVVTQEPSLTVSPGGTVTLTCGSSTGAVTTSNYANWVQQKPGQAFRGLIGGTNKRAPGVPARFSGSLLGGKAALTISGAQPEDEADYYCALWYSNHWVFGCGTKLEIK | – | – | – | no binding
